Reference: patent US20140193420A1 (UNIVERSITY OF TOKYO, published 2014)

What was measured:
[1] = molecular target: T1, ITM2A-furin (Met1 to Leu227 of ITM2A with an HA tag added downstream) expressed on CHO cells (ITM2A-furin_CHO) (human, UniProt O43736 1-227); test: flow cytometry on ITM2A-furin_CHO cells
T1 construct: C-terminally truncated ITM2A on DG44 CHO cells; also called ITM2A-furin-HA; ITM2A-furin-expressing CHO cells
Protocol: (§1) Each anti-ITM2A monoclonal antibody prepared in Example 2 was assayed for its binding to ITM2A-furin by flow cytometry (FACS). The cells used were ITM2A-furin_CHO prepared in the paragraph (4-1), ITM2A_CHO prepared in the paragraph (2-4), and host cells CHO. These cells were separately suspended in PBS supplemented with 0.2% bovine serum albumin and 0.1% NaN3 (FACS buffer). To each cell suspension, the antibody BE5-1, BE6-1, BE7-1-1, or BE13-1, mouse IgG1, or an anti-HA antibody (clone HA-7, mouse IgG1, Sigma-Aldrich Corp.) was added, and the resulting cell suspension was incubated for 1 hour on ice. Each antibody was diluted into 6 dilutions at a common ratio of 5 from a concentration of 10 μg/mL. After washing of the cells with a FACS buffer, an FITC-labeled anti-mouse IgG antibody (Goat F(ab′)2 Fragment Anti-mouse IgG (Fcγ)-FITC, Beckman Coulter, Inc.) was added thereto as a secondary antibody. The resulting cell suspension was incubated for 1 hour on ice. The cells were washed with a FACS buffer, then suspended in a FACS buffer supplemented with 10 μg/mL propidium iodide (PI, Sigma-Aldrich Corp.), and subjected to assay using a flow cytometer. The assay data was analyzed using CELLQuest software (Becton, Dickinson and Company) to evaluate a PI-negative live cell population.

[2] = molecular target: T2, GST-ITM2A-S (GST fusion of ITM2A Tyr75-Lys182, C-terminally His-tagged) (human); test: ELISA, coated GST-ITM2A-S
T2 construct: Expressed in E. coli, solubilized and purified in 8 M urea buffer, coated on the ELISA plate
T2 sequence (chain, as listed by the source limits assumed): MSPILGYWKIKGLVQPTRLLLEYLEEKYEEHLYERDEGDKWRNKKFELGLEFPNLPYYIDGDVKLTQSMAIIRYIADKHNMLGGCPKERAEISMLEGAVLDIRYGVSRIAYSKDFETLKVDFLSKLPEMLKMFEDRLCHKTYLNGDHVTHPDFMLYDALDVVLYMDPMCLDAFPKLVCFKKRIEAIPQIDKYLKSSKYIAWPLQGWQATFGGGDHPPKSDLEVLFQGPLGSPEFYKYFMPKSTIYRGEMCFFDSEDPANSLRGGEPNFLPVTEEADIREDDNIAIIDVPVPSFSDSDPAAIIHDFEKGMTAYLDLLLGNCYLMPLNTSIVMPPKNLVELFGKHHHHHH
Protocol: (§2) Each anti-ITM2A monoclonal antibody prepared in Example 2 was evaluated for its binding to GST-ITM2A-L and GST-ITM2A-S by ELISA. First, 100 μL each of GST-ITM2A-L and GST-ITM2A-S solutions having a concentration of 3 μg/mL was added to each well of a 96-well plate for ELISA (Nunc-Immuno Plate, Thermo Fisher Scientific K.K.) to coat the well with GST-ITM2A-L or GST-ITM2A-S. The coated well was blocked with a buffer containing 1% bovine serum albumin. Then, 100 μL each of solutions of the antibodies BE5-1, BE6-1, BE7-1-1, and BE13-1 diluted with the same buffer as above was added to each well. The plate was incubated at room temperature for 1 hour. The positive control used was an anti-His antibody (mouse IgG1, Santa Cruz Biotechnology, Inc.). The negative control used was mouse IgG1 (BD Pharmingen). Each antibody was diluted into 8 dilutions at a common ratio of 3.16 from a concentration of 1 μg/mL. After reaction with a secondary antibody (alkaline phosphatase-goat anti-mouse IgG (Gamma), Invitrogen Corp.), a substrate (phosphatase substrate, Sigma-Aldrich Corp.) was added to each well. Color developed by the reaction solution in each well was determined by the measurement of absorbance at 405 nm to 655 nm.

[3] = molecular target: T3, GST-ITM2A-L (GST fusion of the ITM2A extracellular region Tyr75-Glu263, C-terminally His-tagged) (human); test: ELISA, coated GST-ITM2A-L
T3 construct: Expressed in E. coli, solubilized and purified in 8 M urea buffer, coated on the ELISA plate
T3 sequence (chain, as listed by the source limits assumed): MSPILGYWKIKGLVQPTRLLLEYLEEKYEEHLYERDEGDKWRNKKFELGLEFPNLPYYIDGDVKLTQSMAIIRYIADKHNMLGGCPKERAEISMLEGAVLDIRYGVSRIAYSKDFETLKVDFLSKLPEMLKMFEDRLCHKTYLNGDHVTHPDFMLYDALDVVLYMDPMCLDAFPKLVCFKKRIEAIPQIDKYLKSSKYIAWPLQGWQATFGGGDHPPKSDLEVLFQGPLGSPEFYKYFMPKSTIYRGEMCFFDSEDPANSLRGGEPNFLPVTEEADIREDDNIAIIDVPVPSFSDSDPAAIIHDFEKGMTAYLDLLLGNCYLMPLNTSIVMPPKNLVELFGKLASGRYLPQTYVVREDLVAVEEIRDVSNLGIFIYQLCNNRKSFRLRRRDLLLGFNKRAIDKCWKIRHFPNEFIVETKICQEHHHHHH
Protocol: as §2

[4] = molecular target: T4, C-terminally HA-tagged mouse ITM2A expressed on CHO cells (mITM2A_CHO) (mouse, UniProt Q61500 1-263); test: flow cytometry on mITM2A_CHO cells
T4 construct: also called mITM2A-HA; mouse ITM2A-expressing CHO cells
T4 sequence (Q61500 other isoform, or with tags, fused parts or gaps): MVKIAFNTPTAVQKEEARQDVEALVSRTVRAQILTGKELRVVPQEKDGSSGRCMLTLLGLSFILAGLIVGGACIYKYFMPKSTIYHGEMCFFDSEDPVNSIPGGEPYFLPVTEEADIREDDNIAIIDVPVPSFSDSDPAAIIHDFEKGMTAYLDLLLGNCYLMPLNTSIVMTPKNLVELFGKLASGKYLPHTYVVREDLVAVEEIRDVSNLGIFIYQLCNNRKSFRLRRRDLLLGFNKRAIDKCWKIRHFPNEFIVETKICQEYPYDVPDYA

[5] = molecular target: T5, human ITM2A protein (endogenous, on human cancer cell lines) (human, UniProt O43736 1-263); test: flow cytometry on human cancer cell lines, BE6-1 at 10 µg/mL, mouse IgG1 as negative control
T5 construct: also called NP-004858.1
T5 sequence (O43736 whole entry): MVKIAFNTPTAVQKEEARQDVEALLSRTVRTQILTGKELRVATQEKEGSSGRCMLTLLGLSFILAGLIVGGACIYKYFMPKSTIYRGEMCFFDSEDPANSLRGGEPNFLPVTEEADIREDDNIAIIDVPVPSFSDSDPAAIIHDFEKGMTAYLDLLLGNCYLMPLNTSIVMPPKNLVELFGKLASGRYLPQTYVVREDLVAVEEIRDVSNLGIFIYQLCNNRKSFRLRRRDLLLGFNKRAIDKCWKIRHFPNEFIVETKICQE
Protocol: as §1
The expression of ITM2A was assayed in human cancer cell lines by FACS. […]

[6] = molecular target: T6, C-terminally HA-tagged ITM2A expressed on CHO cells (ITM2A_CHO) (human, UniProt O43736 1-263); test: flow cytometry on ITM2A_CHO cells
T6 construct: Type II membrane protein on DG44 CHO cells; also called ITM2A-HA; ITM2A-expressing CHO cells
T6 sequence (O43736 other isoform, or with tags, fused parts or gaps): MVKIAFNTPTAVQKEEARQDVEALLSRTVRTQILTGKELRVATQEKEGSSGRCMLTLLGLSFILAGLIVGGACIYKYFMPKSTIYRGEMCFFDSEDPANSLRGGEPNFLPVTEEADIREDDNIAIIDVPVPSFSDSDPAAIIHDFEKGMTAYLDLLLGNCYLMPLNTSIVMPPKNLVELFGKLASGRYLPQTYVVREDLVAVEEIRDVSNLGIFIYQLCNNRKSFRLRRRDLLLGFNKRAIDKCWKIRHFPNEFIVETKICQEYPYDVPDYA
Protocol: as §1

[7] = molecular target: T6, C-terminally HA-tagged ITM2A expressed …; test: flow cytometry screening of hybridoma supernatants on ITM2A_CHO against parent CHO cells

T1 sequence (O43736 other isoform, or with tags, fused parts or gaps limits assumed): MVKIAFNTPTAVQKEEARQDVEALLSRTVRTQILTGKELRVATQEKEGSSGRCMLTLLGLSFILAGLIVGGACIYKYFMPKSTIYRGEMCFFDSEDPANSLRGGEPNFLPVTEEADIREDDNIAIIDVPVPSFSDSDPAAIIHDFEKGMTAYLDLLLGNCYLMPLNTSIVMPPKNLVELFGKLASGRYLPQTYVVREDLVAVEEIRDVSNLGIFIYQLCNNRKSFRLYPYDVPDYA

Binder	binding result [1]	binding result [2]	binding result [3]	binding result [4]	binding result [5]	binding result [6]	binding result [7]
anti-ITM2A monoclonal antibody BE6-1 (antibody, mouse IgG1, V domains shown) VH: EVQLQQSGPELVKPGASVKISCKTSGYTFTEYTMHWVKQSHGKSLEWIGGINPNNGDTSYNQKFKGKATLTVDKSSITAYMELRSLTSEDSAVYYCARGPFAYWGQGTLVTVST VL: DVVMTQTPLSLPVSLGDQASISCRSSQSLVHSNGNTYFHWYLQKPGQSPKFLIYKVSNRFFGVPDRFSGSGSGTDFTLKISRVEAEDLGVYFCSQTTHFPFTFGSGTKLEIK	binds	binds	binds	no binding	binds	binds	
anti-ITM2A monoclonal antibody BE13-1 (antibody, mouse IgG1, V domains shown) VH: EVQLQQSGPELVKPGASVRMSCKASGYTFTDYYMKWVKQSHGKSLEWIGDINPNNGGLSYNQKFKGKATLTVDKSSSTAYMQLASLTSEDSAVYYCAIWSGAYWGQGTLVTVSA VL: not shown			binds	binds		binds	
anti-ITM2A monoclonal antibody BE5-1 (antibody, mouse IgG1, V domains shown) VH: QVQLVETGGGLVRPGNSLKLSCVTSGFTFSDYRMHWLRQSPGKRLEWIAVITGKSDNYGASYAESVKGRFTISRDDSKSSVYLQMNRLREEDTATYYCSRRDYWGQGTSVTVSS VL: DIVMTQAAPSVPVTPGESVSISCRSSKSLLHSNGNTYLYWFLQRPGQSPQLLIYRMSNLAPGVPDRFSGSGSGTAFTLRISRVEAEDVGVYYCMQHLEYPFTFGAGTKLELK	binds	binds	binds	binds			binds
